Test results taken from publication doi:10.1101/2024.05.10.593590.

Columns and labels:
Assay in all cases: fluorescence anisotropy
U-CTD (hnRNP U RBD) = U-CTD (hnRNP U RBD) (human, UniProt Q00839 673-825)
[1] = molecular target: T1, RGG1 (minimal first RGG/RG motif) (human, UniProt Q00839 702-745)
T1 chain: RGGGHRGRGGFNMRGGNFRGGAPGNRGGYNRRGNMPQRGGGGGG

U(702-809) = U(702-809) (human, UniProt Q00839 702-809)
U(702-825) = U(702-825) (human, UniProt Q00839)
U(702-777) = U(702-777) (human, UniProt Q00839 702-777)
U(702-793) = U(702-793) (human, UniProt Q00839 702-793)
U(702-761) = U(702-761) (human, UniProt Q00839 702-761)
U(702-745) = molecular target: T2, U(702-745) (human, UniProt Q00839 702-745)
T2 chain: T1 chain

Chain of U(702-793) (Q00839 702-793): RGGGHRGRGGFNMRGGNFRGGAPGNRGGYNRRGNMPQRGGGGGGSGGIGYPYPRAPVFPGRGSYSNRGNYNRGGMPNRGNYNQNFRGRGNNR
Chain of U(702-809) (Q00839 702-809): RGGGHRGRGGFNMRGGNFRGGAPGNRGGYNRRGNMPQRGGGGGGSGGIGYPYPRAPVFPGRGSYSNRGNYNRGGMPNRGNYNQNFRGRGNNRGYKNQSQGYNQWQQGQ
Chain of U(702-825) (Q00839 702-825): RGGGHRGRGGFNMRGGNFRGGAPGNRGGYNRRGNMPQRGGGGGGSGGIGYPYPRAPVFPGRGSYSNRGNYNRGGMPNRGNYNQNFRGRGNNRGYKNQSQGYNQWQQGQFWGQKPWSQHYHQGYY
Chain of U(702-777) (Q00839 702-777): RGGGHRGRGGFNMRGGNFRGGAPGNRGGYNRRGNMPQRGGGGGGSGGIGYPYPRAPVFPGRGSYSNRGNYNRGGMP
Chain of U-CTD (hnRNP U RBD) (Q00839 673-825): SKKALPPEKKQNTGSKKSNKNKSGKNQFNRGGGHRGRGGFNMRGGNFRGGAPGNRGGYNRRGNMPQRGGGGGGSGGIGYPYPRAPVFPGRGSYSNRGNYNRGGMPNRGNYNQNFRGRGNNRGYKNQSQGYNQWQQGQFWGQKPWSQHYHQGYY

B1: MTRNR2L6 sense 250 nt (ssRNA)
RNA: GUGCUAAGACUAAACAAGUUUAAGCGAAUUACUAUACAUAUAUUGACCCAAUAAUUUGAUCAACGGAACAAGUUACCCUAGGGAUAACAGCGCAAUCCUAUUCUAGAGUCCAUAUUGACAAUAGGGUUUACGACCUCGAUGUUGGAUCAGGACAUCCUAAUGGUGUAGCUGCUAUCAAGGGUUCAUUUGUUCAAUGAUUAAAGUCCUACGUGGUCUGAGUUCAGACCGGAGCAAGCCAGGUCUGGUACAU
In the case of B1, the “apparent K (half saturation)” value (U-CTD (hnRNP U RBD)) is reported as 100 ± 10 nM.

B2: MTRNR2L6 sense 75 nt (ssRNA)
RNA: GUGCUAAGACUAAACAAGUUUAAGCGAAUUACUAUACAUAUAUUGACCCAAUAAUUUGAUCAACGGAACAAGUUA
For B2, the “apparent K (half saturation)” value (U-CTD (hnRNP U RBD)) was 320 ± 30 nM.

B3: MTRNR2L6 antisense 100 nt (ssRNA)
RNA: GAGGAUUGCGCUGUUAUCCCUAGGGUAACUUGUUCCGUUGAUCAAAUUAUUGGGUCAAUAUAUGUAUAGUAAUUCGCUUAAACUUGUUUAGUCUUAGCAC
B3 was tested, and the “apparent K (half saturation)” value (U-CTD (hnRNP U RBD)) was 280 ± 20 nM.

B4: MTRNR2L6 sense 300 nt (ssRNA)
RNA: GUGCUAAGACUAAACAAGUUUAAGCGAAUUACUAUACAUAUAUUGACCCAAUAAUUUGAUCAACGGAACAAGUUACCCUAGGGAUAACAGCGCAAUCCUAUUCUAGAGUCCAUAUUGACAAUAGGGUUUACGACCUCGAUGUUGGAUCAGGACAUCCUAAUGGUGUAGCUGCUAUCAAGGGUUCAUUUGUUCAAUGAUUAAAGUCCUACGUGGUCUGAGUUCAGACCGGAGCAAGCCAGGUCUGGUACAUGUGUAUUUAAGUCCUCCACACCUCCCAUCUAUAAGUCUUUUUAAAACAAA
In the case of B4, the “apparent K (half saturation)” value (U-CTD (hnRNP U RBD)) is reported as 110 ± 10 nM.

GGGGUCAAUAUAUGUAUAGUAAUUCGCUUAAACUUGUUUAGUCUUAGCAC (ssRNA) [MTRNR2L6 antisense 50 nt] was tested, and the “apparent K (half saturation)” value (U-CTD (hnRNP U RBD)) was 480 ± 40 nM.

B5: MTRNR2L6 antisense 75 nt (ssRNA)
RNA: GAACUUGUUCCGUUGAUCAAAUUAUUGGGUCAAUAUAUGUAUAGUAAUUCGCUUAAACUUGUUUAGUCUUAGCAC
With B5 the “apparent K (half saturation)” value (U-CTD (hnRNP U RBD)) was 410 ± 30 nM.

For GAGGGAGGGGAGGGAAGGGAAGGGAAGGGAAGGGGGGGAAACUUC (structured_RNA) [Syncrip G-quad], the Kd [1] was roughly 1000 nM.

B6: MTRNR2L6 sense 100 nt (ssRNA)
RNA: GUGCUAAGACUAAACAAGUUUAAGCGAAUUACUAUACAUAUAUUGACCCAAUAAUUUGAUCAACGGAACAAGUUACCCUAGGGAUAACAGCGCAAUCCUA
With B6 the “apparent K (half saturation)” value (U-CTD (hnRNP U RBD)) was 150 ± 20 nM.

B7: MTRNR2L6 sense 150 nt (ssRNA)
RNA: GUGCUAAGACUAAACAAGUUUAAGCGAAUUACUAUACAUAUAUUGACCCAAUAAUUUGAUCAACGGAACAAGUUACCCUAGGGAUAACAGCGCAAUCCUAUUCUAGAGUCCAUAUUGACAAUAGGGUUUACGACCUCGAUGUUGGAUCAG
In the case of B7, the “apparent K (half saturation)” value (U-CTD (hnRNP U RBD)) is reported as 130 ± 10 nM.

B8: MTRNR2L6 sense 200 nt (ssRNA)
RNA: GUGCUAAGACUAAACAAGUUUAAGCGAAUUACUAUACAUAUAUUGACCCAAUAAUUUGAUCAACGGAACAAGUUACCCUAGGGAUAACAGCGCAAUCCUAUUCUAGAGUCCAUAUUGACAAUAGGGUUUACGACCUCGAUGUUGGAUCAGGACAUCCUAAUGGUGUAGCUGCUAUCAAGGGUUCAUUUGUUCAAUGAUUA
In the case of B8, the “apparent K (half saturation)” value (U-CTD (hnRNP U RBD)) is reported as 210 ± 20 nM.

B9: Antisense MTRNR2L6 (structured_RNA)
RNA: GGCUACACCAUUAGGAUGUCCUGAUCCAACAUCGAGGUCGUAAACCCUAUUGUCAAUAUGGACUCUAGAAUAGGAUUGCGCUGUUAUCCCUAGGGUAACUUGUUCCGUUGAUCAAAUUAUUGGGUCAAUAUAUGUAUAG
B9 was tested, and the Kd (U(702-809)) was 810 ± 60 nM, the Kd (U(702-825)) was 450 ± 10 nM and the Kd (U(702-777)) was 3900 ± 900 nM. It also gave a Kd (U(702-793)) of 1200 ± 100 nM.

B10: Antisense Syncrip (structured_RNA)
RNA: GAAGCUCACGCCGCUGGCAGCAAACCCGAUCCAGUUCCACUCGCCUCCGAGCGCGCUCCCGGUGCGCGCGCGCGCCCCCGCGUGACCCCCCCUUCCCUUCCCUUCCCUUCCCUCCCCUCCCUC
B10 showed a Kd (U(702-809)) of 1600 ± 100 nM, a Kd (U(702-825)) of 570 ± 10 nM and a Kd (U(702-777)) of 14000 ± 2000 nM. The Kd (U(702-793)) was 3000 ± 200 nM.

B11: MTRNR2L6 antisense 250 nt (ssRNA)
RNA: GUGUACCAGACCUGGCUUGCUCCGGUCUGAACUCAGACCACGUAGGACUUUAAUCAUUGAACAAAUGAACCCUUGAUAGCAGCUACACCAUUAGGAUGUCCUGAUCCAACAUCGAGGUCGUAAACCCUAUUGUCAAUAUGGACUCUAGAAUAGGAUUGCGCUGUUAUCCCUAGGGUAACUUGUUCCGUUGAUCAAAUUAUUGGGUCAAUAUAUGUAUAGUAAUUCGCUUAAACUUGUUUAGUCUUAGCAC
With B11 the “apparent K (half saturation)” value (U-CTD (hnRNP U RBD)) was 110 ± 10 nM.

B12: MTRNR2L6 antisense 300 nt (ssRNA)
RNA: GUUGUUUUAAAAAGACUUAUAGAUGGGAGGUGUGGAGGACUUAAAUACACAUGUACCAGACCUGGCUUGCUCCGGUCUGAACUCAGACCACGUAGGACUUUAAUCAUUGAACAAAUGAACCCUUGAUAGCAGCUACACCAUUAGGAUGUCCUGAUCCAACAUCGAGGUCGUAAACCCUAUUGUCAAUAUGGACUCUAGAAUAGGAUUGCGCUGUUAUCCCUAGGGUAACUUGUUCCGUUGAUCAAAUUAUUGGGUCAAUAUAUGUAUAGUAAUUCGCUUAAACUUGUUUAGUCUUAGCAC
B12 was tested, and the “apparent K (half saturation)” value (U-CTD (hnRNP U RBD)) was 110 ± 10 nM.

B13: MTRNR2L6 antisense 150 nt (ssRNA)
RNA: GUGAUCCAACAUCGAGGUCGUAAACCCUAUUGUCAAUAUGGACUCUAGAAUAGGAUUGCGCUGUUAUCCCUAGGGUAACUUGUUCCGUUGAUCAAAUUAUUGGGUCAAUAUAUGUAUAGUAAUUCGCUUAAACUUGUUUAGUCUUAGCAC
With B13 the “apparent K (half saturation)” value (U-CTD (hnRNP U RBD)) was 190 ± 10 nM.

B14: MTRNR2L6 antisense 200 nt (ssRNA)
RNA: GAAUCAUUGAACAAAUGAACCCUUGAUAGCAGCUACACCAUUAGGAUGUCCUGAUCCAACAUCGAGGUCGUAAACCCUAUUGUCAAUAUGGACUCUAGAAUAGGAUUGCGCUGUUAUCCCUAGGGUAACUUGUUCCGUUGAUCAAAUUAUUGGGUCAAUAUAUGUAUAGUAAUUCGCUUAAACUUGUUUAGUCUUAGCAC
B14 was tested, and the “apparent K (half saturation)” value (U-CTD (hnRNP U RBD)) was 230 ± 10 nM.

B15: Syncrip (structured_RNA)
RNA: GAGGGAGGGGAGGGAAGGGAAGGGAAGGGAAGGGGGGGUCACGCGGGGGCGCGCGCGCGCACCGGGAGCGCGCUCGGAGGCGAGUGGAACUGGAUCGGGUUUGCUGCCAGCGGCGUGAGCUUC
B15 was tested, and the Kd (U(702-809)) was 140 ± 50 nM, the Kd (U(702-825)) was 70 ± 19 nM and the Kd (U(702-777)) was 450 ± 160 nM. It also gave a Kd [1] of roughly 1000 nM, a Kd (U(702-793)) of 180 ± 50 nM and a Kd (U(702-761)) of 1100 ± 400 nM. The Kd (U(702-745)) was 910 ± 150 nM.

For GUGCUAAGACUAAACAAGUUUAAGCGAAUUACUAUACAUAUAUUGACCCA (ssRNA) [MTRNR2L6 sense 50 nt], the “apparent K (half saturation)” value (U-CTD (hnRNP U RBD)) was 1000 ± 100 nM.

GCUUAAACUUGUUUAGUCUUAGCAC (ssRNA) [MTRNR2L6 antisense 25 nt] was tested, and the “apparent K (half saturation)” value (U-CTD (hnRNP U RBD)) was 6000 ± 300 nM.

For GUGCUAAGACUAAACAAGUUUAAGC (ssRNA) [MTRNR2L6 sense 25 nt], the “apparent K (half saturation)” value (U-CTD (hnRNP U RBD)) was 4900 ± 700 nM.

B16: MTRNR2L6 (structured_RNA)
RNA: GCUAUACAUAUAUUGACCCAAUAAUUUGAUCAACGGAACAAGUUACCCUAGGGAUAACAGCGCAAUCCUAUUCUAGAGUCCAUAUUGACAAUAGGGUUUACGACCUCGAUGUUGGAUCAGGACAUCCUAAUGGUGUAGC
B16 showed a Kd (U(702-809)) of 710 ± 10 nM, a Kd (U(702-825)) of 220 ± 10 nM and a Kd (U(702-777)) of 4200 ± 500 nM. The Kd (U(702-793)) was 1100 ± 100 nM.
